Test results from patent publication US20230075633A1.

What was measured:
human CD3 (human) [1] = target: human CD3 (human) (UniProt P07766); experiment: flow cytometry on human PBMC (ND 12)
human CD3 (human) [2] = target: human CD3 (human) (UniProt P07766); experiment: flow cytometry on Jurkat cells
human CEA (human) = human CEA (human) (UniProt P06731); experiment: cell-based or functional assay
human CEA (human), sequence (P06731 35-702, form in doubt): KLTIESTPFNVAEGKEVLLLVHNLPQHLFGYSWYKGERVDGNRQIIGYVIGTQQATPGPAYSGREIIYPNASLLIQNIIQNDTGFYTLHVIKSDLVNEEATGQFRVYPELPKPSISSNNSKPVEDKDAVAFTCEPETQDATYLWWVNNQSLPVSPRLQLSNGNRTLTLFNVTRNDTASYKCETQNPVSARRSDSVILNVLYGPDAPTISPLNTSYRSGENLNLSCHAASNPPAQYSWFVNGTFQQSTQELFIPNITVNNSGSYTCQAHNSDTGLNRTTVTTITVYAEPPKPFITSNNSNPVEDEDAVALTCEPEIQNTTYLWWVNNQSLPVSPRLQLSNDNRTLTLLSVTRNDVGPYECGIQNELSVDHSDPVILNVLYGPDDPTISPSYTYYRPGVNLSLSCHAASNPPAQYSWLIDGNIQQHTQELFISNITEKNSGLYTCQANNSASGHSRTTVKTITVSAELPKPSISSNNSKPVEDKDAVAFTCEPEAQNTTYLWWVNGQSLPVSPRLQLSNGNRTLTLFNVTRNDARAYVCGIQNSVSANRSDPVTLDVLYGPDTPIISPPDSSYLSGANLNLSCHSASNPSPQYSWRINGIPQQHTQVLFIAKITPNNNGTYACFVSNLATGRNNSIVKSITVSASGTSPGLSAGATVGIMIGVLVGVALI

human CD3 (human), sequence (P07766 23-207): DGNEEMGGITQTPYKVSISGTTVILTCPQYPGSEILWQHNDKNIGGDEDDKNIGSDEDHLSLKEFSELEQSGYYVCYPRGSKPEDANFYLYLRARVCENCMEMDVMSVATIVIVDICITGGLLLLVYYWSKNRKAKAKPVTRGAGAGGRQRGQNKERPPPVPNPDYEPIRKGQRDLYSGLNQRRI

**Q.** For Roche CEA-TCB (bispecific antibody), which EC50 (human CD3 (human) [1]) is on record?
**A.** 0.34 nM

**Q.** And the EC50 (human CD3 (human) [2])?
**A.** 0.207 nM

**Q.** And the cytolysis of LS174T cells by PBMC: EC50 (human CEA (human))?
**A.** 0.005 nM

**Q.** And the cytolysis of MKN-45 cells by PBMC, E/T 20:1, 48 h: EC50 against that of CEA/CD3OPT1a3b2b1 BsAb (human CEA (human))?
**A.** 50 fold

**Q.** And the cytolysis of MKN-45 cells by PBMC: EC50 (human CEA (human))?
**A.** 0.001 nM
